In one experiment the target is Msh2(K694A)–Msh6 (S. cerevisiae, UniProt P25847 1-964; Q03834 1-1242, K694A). Briefly: cell-based or functional assay.
The next experiment addresses Msh2(K694M)–Msh6 (S. cerevisiae, UniProt P25847 1-964; Q03834 1-1242, K694M). Briefly: cell-based or functional assay.
The target of a further experiment is Msh2(K694R)–Msh6 (S. cerevisiae, UniProt P25847 1-964; Q03834 1-1242, K694R). Description: cell-based or functional assay.
Experiment [1] concerns the target T1, S. cerevisiae Msh2–Msh6 (WT) (S. cerevisiae, UniProt P25847 1-964; Q03834 1-1242).
T1 construct: Msh2, S. cerevisiae, wild type; Msh6, S. cerevisiae, wild type; Heterodimer; also called WT Msh2–Msh6
Description: SPR; Biacore T100; 236-bp GT mispair DNA held by biotin-streptavidin, other end blocked by lacO-LacI; 20 nM Msh2–Msh6, 250 μM ATP, 30 nM LacI for 100 s, then the same plus 40 nM Mlh1–Pms1 for 300 s; recruitment read as the increase in RU over steady-state Msh2–Msh6; 25 mM Tris pH 8, 4 mM MgCl2, 110 mM NaCl, 0.01% Igepal, 2 mM DTT, 2% glycerol; 10 °C, 20 μl/min. The conditions noted are these: both partners purified.

Another experiment concerns the target T2, Msh2–Msh6(K988A) (S. cerevisiae, UniProt P25847 1-964; Q03834 1-1242, K988A).
T2 construct: Msh2, S. cerevisiae, wild type; Msh6, S. cerevisiae, Walker A lysine mutant; also called Walker A Lys mutant Msh2–Msh6 complex
Described as above. The following applies: both partners purified.

The next experiment has as its target T3, Msh2–Msh6(K988M) (S. cerevisiae, UniProt P25847 1-964; Q03834 1-1242, K988M).
T3 construct: Msh2, S. cerevisiae, wild type; Msh6, S. cerevisiae, Walker A lysine mutant; also called Walker A Lys mutant Msh2–Msh6 complex; source: purified
The description is as above. The conditions noted are these: both partners purified.

The next experiment has as its target T4, Msh2–Msh6(K988R) (S. cerevisiae, UniProt P25847 1-964; Q03834 1-1242, K988R).
T4 construct: Msh2, S. cerevisiae, wild type; Msh6, S. cerevisiae, Walker A lysine mutant; also called Walker A Lys mutant Msh2–Msh6 complex
Described as above. The following applies: both partners purified.

Sequence of Msh2(K694A)–Msh6 (P25847 whole entry K694A, chain 1 of 2): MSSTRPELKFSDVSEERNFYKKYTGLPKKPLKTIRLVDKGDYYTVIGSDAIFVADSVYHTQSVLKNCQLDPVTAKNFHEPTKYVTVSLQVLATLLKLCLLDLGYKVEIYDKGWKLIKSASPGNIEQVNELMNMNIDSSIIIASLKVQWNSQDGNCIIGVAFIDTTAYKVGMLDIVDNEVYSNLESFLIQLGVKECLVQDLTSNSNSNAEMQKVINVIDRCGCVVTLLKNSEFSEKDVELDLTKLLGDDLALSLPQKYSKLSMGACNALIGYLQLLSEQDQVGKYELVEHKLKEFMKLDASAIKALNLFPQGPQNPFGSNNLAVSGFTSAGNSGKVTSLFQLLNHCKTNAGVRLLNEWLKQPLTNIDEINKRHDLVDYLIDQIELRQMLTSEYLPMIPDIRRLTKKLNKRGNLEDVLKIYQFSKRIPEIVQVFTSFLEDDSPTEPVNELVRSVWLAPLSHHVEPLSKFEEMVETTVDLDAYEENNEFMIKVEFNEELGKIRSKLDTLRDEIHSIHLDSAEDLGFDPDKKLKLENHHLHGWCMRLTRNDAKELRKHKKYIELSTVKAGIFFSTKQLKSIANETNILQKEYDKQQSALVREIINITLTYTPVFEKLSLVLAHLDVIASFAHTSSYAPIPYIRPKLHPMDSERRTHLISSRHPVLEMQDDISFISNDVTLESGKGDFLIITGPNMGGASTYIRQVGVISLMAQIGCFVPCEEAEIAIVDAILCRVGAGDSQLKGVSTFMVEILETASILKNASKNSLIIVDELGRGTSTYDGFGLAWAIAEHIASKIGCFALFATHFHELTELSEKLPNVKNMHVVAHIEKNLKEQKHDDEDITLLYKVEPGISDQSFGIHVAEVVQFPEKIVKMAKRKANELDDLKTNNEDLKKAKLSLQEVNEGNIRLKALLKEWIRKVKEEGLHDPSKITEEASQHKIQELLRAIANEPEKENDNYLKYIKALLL
Sequence of Msh2(K694A)–Msh6 (Q03834 whole entry, chain 2 of 2): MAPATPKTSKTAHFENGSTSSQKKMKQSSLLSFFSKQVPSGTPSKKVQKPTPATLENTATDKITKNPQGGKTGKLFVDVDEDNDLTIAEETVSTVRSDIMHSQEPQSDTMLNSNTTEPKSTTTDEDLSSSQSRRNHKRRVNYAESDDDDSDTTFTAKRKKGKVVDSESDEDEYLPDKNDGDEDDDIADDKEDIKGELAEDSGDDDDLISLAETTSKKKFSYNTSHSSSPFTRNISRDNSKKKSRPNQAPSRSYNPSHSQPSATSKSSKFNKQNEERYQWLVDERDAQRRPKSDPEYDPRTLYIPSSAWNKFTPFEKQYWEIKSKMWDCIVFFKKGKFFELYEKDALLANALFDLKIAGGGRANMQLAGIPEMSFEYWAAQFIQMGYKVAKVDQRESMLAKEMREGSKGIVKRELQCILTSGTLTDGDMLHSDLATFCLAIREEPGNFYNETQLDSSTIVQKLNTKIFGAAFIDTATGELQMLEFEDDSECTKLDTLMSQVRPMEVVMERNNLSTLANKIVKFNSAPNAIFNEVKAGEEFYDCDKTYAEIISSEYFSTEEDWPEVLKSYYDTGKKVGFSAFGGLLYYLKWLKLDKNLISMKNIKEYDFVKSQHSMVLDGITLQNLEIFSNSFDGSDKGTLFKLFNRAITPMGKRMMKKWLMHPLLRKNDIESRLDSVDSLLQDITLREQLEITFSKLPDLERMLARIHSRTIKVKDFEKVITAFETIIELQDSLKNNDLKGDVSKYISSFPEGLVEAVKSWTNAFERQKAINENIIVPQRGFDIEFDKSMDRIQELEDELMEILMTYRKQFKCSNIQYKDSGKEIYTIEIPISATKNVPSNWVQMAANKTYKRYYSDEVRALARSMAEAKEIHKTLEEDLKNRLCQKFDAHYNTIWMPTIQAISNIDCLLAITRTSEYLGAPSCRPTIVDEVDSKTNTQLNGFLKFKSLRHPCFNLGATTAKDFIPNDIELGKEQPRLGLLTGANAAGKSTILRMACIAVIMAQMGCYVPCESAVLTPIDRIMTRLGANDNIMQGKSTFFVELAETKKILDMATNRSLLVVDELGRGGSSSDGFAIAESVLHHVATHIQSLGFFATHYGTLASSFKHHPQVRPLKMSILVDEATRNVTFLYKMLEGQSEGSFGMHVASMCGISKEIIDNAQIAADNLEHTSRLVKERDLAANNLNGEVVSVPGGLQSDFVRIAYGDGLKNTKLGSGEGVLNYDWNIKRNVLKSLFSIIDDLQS
Sequence of Msh2(K694R)–Msh6 (P25847 whole entry K694R, chain 1 of 2): as the sequence (P25847 whole entry K694A, chain 1 of 2) above, with A694R counted along it
Sequence of Msh2(K694R)–Msh6 (Q03834 whole entry, chain 2 of 2): as the sequence (Q03834 whole entry, chain 2 of 2) above
Sequence of Msh2(K694M)–Msh6 (P25847 whole entry K694M, chain 1 of 2): as the sequence (P25847 whole entry K694A, chain 1 of 2) above, with A694M counted along it
Sequence of Msh2(K694M)–Msh6 (Q03834 whole entry, chain 2 of 2): as the sequence (Q03834 whole entry, chain 2 of 2) above
T3 sequence (P25847 whole entry, chain 1 of 2): as the sequence (P25847 whole entry K694A, chain 1 of 2) above, with A694K counted along it
T3 sequence (Q03834 whole entry K988M, chain 2 of 2): as the sequence (Q03834 whole entry, chain 2 of 2) above, with K988M counted along it
T4 sequence (P25847 whole entry, chain 1 of 2): as the sequence (P25847 whole entry K694A, chain 1 of 2) above, with A694K counted along it
T4 sequence (Q03834 whole entry K988R, chain 2 of 2): as the sequence (Q03834 whole entry, chain 2 of 2) above, with K988R counted along it
T1 sequence (P25847 whole entry, chain 1 of 2): as the sequence (P25847 whole entry K694A, chain 1 of 2) above, with A694K counted along it
T1 sequence (Q03834 whole entry, chain 2 of 2): as the sequence (Q03834 whole entry, chain 2 of 2) above
T2 sequence (P25847 whole entry, chain 1 of 2): as the sequence (P25847 whole entry K694A, chain 1 of 2) above, with A694K counted along it
T2 sequence (Q03834 whole entry K988A, chain 2 of 2): as the sequence (Q03834 whole entry, chain 2 of 2) above, with K988A counted along it

B1: S. cerevisiae Mlh1–Pms1 (complex)
chain 1: MSLRIKALDASVVNKIAAGEIIISPVNALKEMMENSIDANATMIDILVKEGGIKVLQITDNGSGINKADLPILCERFTTSKLQKFEDLSQIQTYGFRGEALASISHVARVTVTTKVKEDRCAWRVSYAEGKMLESPKPVAGKDGTTILVEDLFFNIPSRLRALRSHNDEYSKILDVVGRYAIHSKDIGFSCKKFGDSNYSLSVKPSYTVQDRIRTVFNKSVASNLITFHISKVEDLNLESVDGKVCNLNFISKKSISPIFFINNRLVTCDLLRRALNSVYSNYLPKGNRPFIYLGIVIDPAAVDVNVHPTKREVRFLSQDEIIEKIANQLHAELSAIDTSRTFKASSISTNKPESLIPFNDTIESDRNRKSLRQAQVVENSYTTANSQLRKAKRQENKLVRIDASQAKITSFLSSSQQFNFEGSSTKRQLSEPKVTNVSHSQEAEKLTLNESEQPRDANTINDNDLKDQPKKKQKLGDYKVPSIADDEKNALPISKDGYIRVPKERVNVNLTSIKKLREKVDDSIHRELTDIFANLNYVGVVDEERRLAAIQHDLKLFLIDYGSVCYELFYQIGLTDFANFGKINLQSTNVSDDIVLYNLLSEFDELNDDASKEKIISKIWDMSSMLNEYYSIELVNDGLDNDLKSVKLKSLPLLLKGYIPSLVKLPFFIYRLGKEVDWEDEQECLDGILREIALLYIPDMVPKVDTSDASLSEDEKAQFINRKEHISSLLEHVLFPCIKRRFLAPRHILKDVVEIANLPDLYKVFERC
chain 2: MTQIHQINDIDVHRITSGQVITDLTTAVKELVDNSIDANANQIEIIFKDYGLESIECSDNGDGIDPSNYEFLALKHYTSKIAKFQDVAKVQTLGFRGEALSSLCGIAKLSVITTTSPPKADKLEYDMVGHITSKTTTSRNKGTTVLVSQLFHNLPVRQKEFSKTFKRQFTKCLTVIQGYAIINAAIKFSVWNITPKGKKNLILSTMRNSSMRKNISSVFGAGGMRGLEEVDLVLDLNPFKNRMLGKYTDDPDFLDLDYKIRVKGYISQNSFGCGRNSKDRQFIYVNKRPVEYSTLLKCCNEVYKTFNNVQFPAVFLNLELPMSLIDVNVTPDKRVILLHNERAVIDIFKTTLSDYYNRQELALPKRMCSQSEQQAQKRLKTEVFDDRSTTHESDNENYHTARSESNQSNHAHFNSTTGVIDKSNGTELTSVMDGNYTNVTDVIGSECEVSVDSSVVLDEGNSSTPTKKLPSIKTDSQNLSDLNLNNFSNPEFQNITSPDKARSLEKVVEEPVYFDIDGEKFQEKAVLSQADGLVFVDNECHEHTNDCCHQERRGSTDTEQDDEADSIYAEIEPVEINVRTPLKNSRKSISKDNYRSLSDGLTHRKFEDEILEYNLSTKNFKEISKNGKQMSSIISKRKSEAQENIIKNKDELEDFEQGEKYLTLTVSKNDFKKMEVVGQFNLGFIIVTRKVDNKYDLFIVDQHASDEKYNFETLQAVTVFKSQKLIIPQPVELSVIDELVVLDNLPVFEKNGFKLKIDEEEEFGSRVKLLSLPTSKQTLFDLGDFNELIHLIKEDGGLRRDNIRCSKIRSMFAMRACRSSIMIGKPLNKKTMTRVVHNLSELDKPWNCPHGRPTMRHLMELRDWSSFSKDYEI
notes: Mlh1, S. cerevisiae; Pms1, S. cerevisiae; also called MMR endonuclease Mlh1–Pms1
With B1, the “Mlh1–Pms1 endonuclease nicking of a 3′ nicked mispaired DNA promoted by the Msh2–Msh6 variant (with PCNA, RFC-Δ1N), 0.1 and 2.5 mM ATP, relative to WT Msh2–Msh6” value with Msh2(K694A)–Msh6, in the experiment with Msh2(K694M)–Msh6 and with Msh2(K694R)–Msh6 was ~50 % of the nicking of WT Msh2–Msh6 throughout. Besides, in experiment [1], the “stoichiometry N” value worked out at 1.07 Mlh1–Pms1 per Msh2–Msh6. Also, the binding result in the experiment with Msh2–Msh6(K988A), with Msh2–Msh6(K988M) and in the experiment with Msh2–Msh6(K988R) was “binds” throughout.

Values taken from paper PMC6254361, “The properties of Msh2–Msh6 ATP binding mutants suggest a signal amplification mechanism in DNA mismatch repair” (The Journal of Biological Chemistry, 2018).
